Molecular target: the molecule itself
Experiment: NMR 15N R2 relaxation

B1: HIF-1α PAS-B domain single mutant (R245E), construct 947 (domain or fragment)
chain: not shown
  binding result: binds
